Results as given in US20230060409.

Tested on: Ras

Substance: mouse neurofibromin expressed from full-length mNf1 cDNA with exon 28 deleted
- Ras assays (GTP-Ras levels, p-ERK/ERK ratio, ELK1 transcriptional activity): exon 28 deletion performed the worst in Ras assays as it retained the least function
